Laboratory results as given in patent US20260176659A1, “IMPROVED METHOD FOR THE PRODUCTION OF NATURAL VANILLIN” (BASE SE, priority 2022, published 2026).

Assay: Bioconversion of eugenol to vanillin: one-pot concurrent cascade EUGO + alkene cleavage oxygenase (5 mM scale)
Type: biochemical
Conditions: Table 8b, EUGO FD-CFE 1 mg/mL, CO-0X FD-CFE 1 mg/mL, catalase 10 mg/mL, eugenol 5 mM
Procedure: Stock solutions of eugenol (100 mM) were prepared in ethanol or DMSO and stored at −20° C. Unless otherwise stated, the reaction mixtures (0.5 mL) were set up in 1.5 mL glass vials as follows: freeze-dried cell free extract of IECO/CO-XX (3 mg) and EUGO (0.5 mg) were dissolved in the reaction buffer (50 mM glycine-NaOH pH 9.0) containing sodium ascorbate (1 mM), FeSO4 (1 mM) and bovine liver catalase (5 mg, Sigma Aldrich C40). The reaction was initiated by the addition of 0.025 mL eugenol stock (final concentration 5 mM), then incubated at 30° C. and 120 rpm overnight (rotary shaker). The final content of cosolvent was 5% v/v. To improve oxygenation, the vials were placed horizontally. At certain time points, samples (0.2 mL) were quenched with methanol (0.4 mL) and the mixture was centrifuged at 20238 g for 5-10 mins. Finally, the supernatant was analysed by HPLC.
EUGO (0.5 mg CFE), CO-25 (3 mg CFE) and catalase (5 mg, Sigma product #C40) were dissolved in 50 mM Glycine-NaOH pH 9.0 or Tris-HCl pH 8.0 together with FeSO4 (1 mM) and sodium ascorbate (1 mM). Note that the buffer content of the freeze-dried biocatalyst prep was not considered for the assembling of the reaction. The reaction was started by the addition of 5 mM eugenol from a 20× stock in ethanol. The reactions—performed in glass vials—were then incubated at 30° C. and 120 rpm (25 mm shaker). Finally, samples of the reaction mixture were diluted with MeOH and analyzed by HPLC at 280 and 340 nm.

Molecule	Product distribution after 24 hours 2a (%) (pH 8.0)	Product distribution after 24 hours 3a (%) (pH 8.0)	Product distribution after 24 hours 5a (%) (pH 8.0)	Product distribution after 24 hours 2a (%) (pH 9.0)	Product distribution after 24 hours 3a (%) (pH 9.0)	Product distribution after 24 hours 5a (%) (pH 9.0)
CO-15: alkene cleavage oxygenase, Herbaspirillum sp., SEQ ID NO: 74 (protein, listed as Herbaspirillum sp.) MNIRFSNNDFKSFEAPMRAEIELTGLEVVQGKVPKNLEGGFFRLIGDRKWPAFVDNDVFMLNEDGMASCFYFKDGKVDFRMRYVRTPRFVAEEKAGRALFGHYRNPFSDDPSVAGLSRGTANVTMLMHGGKLLALKEDSPAIELNPFTLETIGEYDWNGKVTAKAITAHPKIDAKTGELVFFGYCAAGPATRDIAYYEADSEGNVTHETWFHAPYTCMVHDIMVTQNYVVFPITPLRHELEWIKRSEPAFKWDPHESVYLGVLPRKGRGDQIRWFKGPNQCHGHTVGAYDDGRYIYADNTFSKRSFFHFFPNVDGSQFKPTDAMPYMKRVVIDMERSDNSFVEQPLFEYPCELPRIDTRFETLPYSFATMNLLDVPGQERVGRGFQWIATMDVNGAKPSKILYAGDNCSIGEPQFVPAHDNAAEGDGYIMTVVGRHEQMRSELLILDASDINAPPVATVALPFRLRSTGHGYWYGGRQLRGETNFPGAW	68.3%	13.5%	18.2%	61.2%	16.5%	22.2%
CO-20: alkene cleavage oxygenase, Pseudomonas frederiksbergensis, SEQ ID NO: 120 (protein, listed as Pseudomonas frederiksbergensis) MTHPFPQTPEFSGALYAPSRVEAEVFDLEVEGTLPDSIRGAFYQVAPDPQYPPMLGNDIFFNGDGMVSAFNFADGKVSMRRRYVKTDRLMAQRREGRSLNGVYRNVFTNDPLAAKNNTTANTSVVAHNGVLLALKEDALPWAMDLETLETLGEWSFDGQIESATFTAHPKLDPVTGNLLAFSYEAKGDGTPDLAYFELSPDGKLLHQIWFQAPYAAMVHDFAVTEHYVVFPLIPLTVDVERMKNGGQHFQWQPDLPQLFAVVPRNGHAEDVRWFKGPKDGFQGHTLNAFDEDDKVYVDMPVTGGNIFYFFPQADGYVPPPETLAASLMRWTFDLTSTQDDIQPQPLTDYPCEFPRCDDRYIGRKYEHGFVLAFDPERPYNPANGPIPFQFFNLLARVNLKTGATDAWFPGDSGCFQEPIFIPRAPDAQEADGYVVALLNLIAEGRSELVVLDSRDMASGPIARIKVPFRLRMSLHGCWVPSKK	59.4%	23.6%	17.0%	57.8%	22.0%	20.2%
CO-13: alkene cleavage oxygenase, Actinobacteria bacterium, SEQ ID NO: 64 (protein, listed as Actinobacteria bacterium) MVRFPPPKDPFDAPMRVEADIRGVQVTQGEVPEHLDGIYYRCVSDRQWPSYVENDLELFNSDGMIISFRFHKGRVDFKSRYVRTPRFVAEEKAGRALFGAYRNPFDDDPSVAGISRGLANTNVFYHGGKLYASKEDSPPILLDPITLETIGEYDFEGALTSRTSTAHPKFDPITGEMVFFGYEAKGPGTPDIAYYEADASGRIIHEAWLEAPYTSMVHDWAVTQNFVVFPIIPLRSDIEWIKQGRSYFQWDPYEDVYLGVMPRKGTAKDLRWYRGSNRFASHIMGAYDDGRYIYIDTPVGQTNYFPWFPDITGAPYDPERSKGYLSRWTIDTQGESDGFTETRLCDLPGEFPRMDDRQETLPYHWGIMLLTDGPGRVAPGGGFRWLMGIDLKTGRKQIYYPGDNCTLGEAIFVPAAPDAPPGVGYVFTVVARRAEMRSDLVILDAQHIDGEPVCTLSLPMRIRMGVHGNWVSAEELARRTA	56.4%	26.4%	17.2%	45.3%	32.4%	22.3%
CO-17: alkene cleavage oxygenase, Coniochaeta pulveracea, SEQ ID NO: 82 (protein, listed as Coniochaeta pulveracea) MAHIFDLAPEVSLPDEPIYKDGKLHRPNHVQFPQTPVFASMNKPSRFEGTILSLEHTGIIPPEINGTFFRVQPDHRFPPMFEDDIHFNGDGSVTAIRIFDGKVDFRQRYVHTERYKAETKARRSLFGRYRNPWTDNESVKGVIRTASNTNVFFWRGMLLATKEDGPPYAMDPVTLETYGRYDFEGQILSPTFTAHPKFDPRTGEMVCFAYETGGDGADCSREVMVWTLDKDGKKVSERWFEAPFAGMIHDCGLSENWLVLPLTPIKMDLERMKRGGNKFAWDPKEDQVYGLVPRRGDGEVKWFRGENAFHGHVAGCYENAQGHVVIDLTVADGNVFFWFPPDGEEQGQFAKRNKLSSPTHRWILDPSLPNNARITPALVWPTNGEFSRIDDRWTTRKYKHFWLAKVDPSRPYDFAKCGPPAGGLFNCLGHYTWDLDNELATGQEDVYFAGPTCTFQEPTFIPKGDKEGEGWLIALVNHLDVLRNDVVILDAQNLAKGPVCTIHLPLKLKLGLHGNWVDWRDIEDWTKRRQEDGEVGPVQVATEMLPWQKAFWEKEKEKNGNGVEGPNINGTNGANGTNGVNGSSH	73.1%	7.8%	19.1%	65.8%	11.8%	22.5%
CO-16: alkene cleavage oxygenase, Valsa mali, SEQ ID NO: 76 (protein, listed as Valsa mali) MAHIFDIAPAVKGYASGRLAKPGDATTFPDTDVFRGINKPSRFEGDIFDLEVTGTIPKDIDGTFYRVQPDHRFPPLFEDDIHFNGDGSVTAIRISNGHADFKQRYVQTDRYKAETAARRSLFGRYRNPWTDNESVKGVIRTASNTNVTFWRGILLASKEDGPPFAMDPVTLETLGRYDFEGQIKAPTFTAHPKFDPDTGEMLCFAYEAGGDGNDGSCDVVVWTVDADGKKTEECWYKAPFAGMIHDMAVSKNFVVLPLTPLKVNMDRMKKGGEKFAWDPKEDQYYGLVPRRNAKPEDIRWFRADNGMAPFLKTLSTHCADTPASSAFQGHIAGCYENEEGHVVVDLTVADGNVFFWWPPDDGTAIPPGKKPNQLSSTTTRWILDPKAETNTRITPAYVWPTNGEFSRIDDRFVTKKYKHFWQAKVDPTRPYDFAKCGPPAGGLFNCLGHYTWSPDNPLAKGEEDVFFFGPTATVQEPSFIPKDEGGEGDGYLIALVNHLDVLRNDIAVFDAQHLAGGPLAVLHLPLKLKLGLHGNFVDHRDIEAWQRRRDAKGDVGPVKVATEPLPWQKSFWDRRQDGQNGGLNGTH	76.0%	4.3%	19.7%	71.0%	5.5%	23.5%
